Key:
[1] = target: PGR5a fused to the N-terminal part of YFP (PGR5a-YFP^n) (cucumber (Cucumis sativus L.)); assay: split reporter (BiFC, NanoBiT); halves of YFP, transient expression in N. benthamiana leaves, confocal microscopy on the third day; also after 30 min in the dark (state 1) or red light (state 2)
[2] = target: cyt b6f complex of cucumber thylakoid membranes (cucumber (endogenous in cucumber thylakoids)); assay: native gel or EMSA; blue native PAGE of thylakoid membranes (cucumber or tobacco) dissolved in an equal volume of 2% DM, 4 °C, followed by immunoblotting with anti-PGR5; leaf discs also arrested in state 1 or state 2, dark or red light, or incubated with Put

YFP fluorescence intensity (BiFC), stronger in state 2 than in state 1 [1] [%]	other results	Substance
64		Lhcb3 fused to the C-terminal part of YFP (Lhcb3-YFP^c) (natural protein)
	YFP fluorescence intensity (BiFC), stronger in state 1 than in state 2 [1]: 64%	PetC fused to the C-terminal part of YFP (PetC-YFP^c) (natural protein)
67		PsaH fused to the C-terminal part of YFP (PsaH-YFP^c) (natural protein)
	PGR5 abundance in the cyt b6f complex, higher in state 1 than in state 2 [2]: 40%	native PGR5 protein of cucumber thylakoid membranes (natural protein)
